Source: patent publication US20250206841A1 (ADEPT THERAPEUTICS, published 2025)
Numbering of substitutions follows the chain as printed.

T1: human Trop-1 (EpCAM) (human, UniProt P16422 24-265, limits assumed)
T1 sequence (looked up): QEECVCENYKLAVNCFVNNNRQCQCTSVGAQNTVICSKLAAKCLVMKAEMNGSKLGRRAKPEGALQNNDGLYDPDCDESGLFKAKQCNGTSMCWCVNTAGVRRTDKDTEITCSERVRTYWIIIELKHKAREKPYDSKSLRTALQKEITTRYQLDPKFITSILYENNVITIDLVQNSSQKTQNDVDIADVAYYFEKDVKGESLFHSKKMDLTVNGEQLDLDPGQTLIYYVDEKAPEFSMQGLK

T2: mouse Trop-2 (mouse, UniProt Q8BGV3 25-270, limits assumed)
T2 construct: also called Kactus Cat #TRP-MM121
T2 sequence (looked up): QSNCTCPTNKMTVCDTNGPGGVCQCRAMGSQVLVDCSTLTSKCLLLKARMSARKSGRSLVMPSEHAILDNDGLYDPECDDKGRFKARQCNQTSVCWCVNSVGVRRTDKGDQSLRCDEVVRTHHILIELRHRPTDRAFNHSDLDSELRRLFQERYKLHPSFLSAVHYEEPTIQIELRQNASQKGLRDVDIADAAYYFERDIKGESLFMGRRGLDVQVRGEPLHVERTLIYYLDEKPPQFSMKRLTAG

T3: rat Trop-2 (rat, UniProt Q6P9Z6 25-270, limits assumed)
T3 sequence (looked up): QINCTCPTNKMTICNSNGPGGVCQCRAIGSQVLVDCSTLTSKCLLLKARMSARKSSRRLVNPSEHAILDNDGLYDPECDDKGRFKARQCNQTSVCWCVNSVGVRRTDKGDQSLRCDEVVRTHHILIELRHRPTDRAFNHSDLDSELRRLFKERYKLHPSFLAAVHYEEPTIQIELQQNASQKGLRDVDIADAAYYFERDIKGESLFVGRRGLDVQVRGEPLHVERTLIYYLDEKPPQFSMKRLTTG

T4: human Trop-2-His protein (human, UniProt P09758 27-274)
T4 construct: extracellular domain; Assay paragraphs say only 'Trop-2-His'; also called hTrop-2; Kactus Cat #TRP-HM121; not shown: His tag
T4 sequence (looked up): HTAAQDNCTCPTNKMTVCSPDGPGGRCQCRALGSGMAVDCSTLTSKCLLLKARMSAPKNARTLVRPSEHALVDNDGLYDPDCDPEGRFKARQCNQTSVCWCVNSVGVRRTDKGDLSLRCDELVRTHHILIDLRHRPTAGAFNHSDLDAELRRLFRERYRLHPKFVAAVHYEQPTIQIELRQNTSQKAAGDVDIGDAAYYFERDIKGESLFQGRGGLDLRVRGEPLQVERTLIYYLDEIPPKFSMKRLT

T5: cynomolgus Trop-2-His protein (cynomolgus, UniProt P09758 27-274 (human entry))
T5 construct: also called cynmolgus Trop-His; Kactus Cat #TRP-CM121; not shown: His tag
T5 chain: T4 sequence (looked up) with M36V, S67N, G139S, I204V

B1: 9D7 (antibody, V domains shown)
VH: QSLEESGGDLVQPGASLTLTCKASGFDLNNYSILWVRQAPGKGLEWIGCIYISGGSTYYANWAKGRFAISKTSSTTVTLQMTSLTAADTATYFCARDDGTASYYLNLWGPGTLVTVSS
VL: YDMTQTPASVSEPVGGTVTIKCQASEDIYKLLAWYQQKPGQPPKLLIYAASDLESGVPSRFKGRGSGTDYTLTISDLECADAATYYCQQAYTIGNIDNSFGGGTEVVVK
notes: Rabbit-derived clone; LEM construct: VH + rabbit IgG CH1 + human IgG1 CH2-CH3
B2: 10A9 (antibody, V domains shown)
VH: B1 VH with S32A, I33M, S56T, Y59F, N61S, K64T, A101T
VL: B1 VL with E12A, P13A, K30S, A49G, D52N, R64S, D69E, A80D, S99A
notes: as for B1
B3: 10A9-2 (antibody, V domains shown)
VH: B1 VH with S32A, I33M, C49S, S56T, Y59F, N61S, K64T, A101T
VL: B1 VL with E12A, P13A, K30S, A49G, D52N, R64S, D69E, C79A, A80D, S99A
B4: 9D7-2 (antibody, V domains shown)
VH: B1 VH with C49S
VL: B1 VL with C79A
B5: 1D10 (antibody, V domains shown)
VH: QEQLKESGGGLVQPGGSLTLSCKASGFDFNYYGVSWVRQAPGKGLEWIGYIYPAYHNTYYATWVNGRFTISSHNAQNTLYLQLNTLTAADTATYFCARDAGSTDYNLNLWGPGTLVTVSS
VL: DVVMTQTPASVEVAVGGTVTIKCQASEDIESYLAWYQQKPGQPPRLLIYEASKLASGVSSRFSGGGYGTDFTLTISGVECADAATYYCHQALTIGNVDNPFGGGGEVVVK
notes: as for B1
B6: 74F11/15F5 (antibody, human IgG1, V domains shown)
VH: QEQLKESGGGLVQPGGSLKLSCKASGFDFNNYGMSWVRQAPGKGLEWIAYIYPAFHNTYYANWVNGRFTISSDNAQNTVDLQLNSLTAADTATYFCARDAGSTDYNFNLWGPGTLVTVSS
VL: B5 VL with V13A, S31R, R45K, A55P, G65S, D70E, H89Q, N96Y, G105S
notes: LEM construct: VH + rabbit IgG CH1 + human IgG1 CH2-CH3
B7: 72F12 (antibody, V domains shown)
VH: B6 VH with M34V, N62T, D73H, V79L, D80Y, T103V
VL: DVVMTQTPASVEVAVGGTVTIKCQASKNIDSNLAWYQQKPGQPPKQLIYAASTLASGVSSRFSGSGYGAEFTLTISGVECADAATYYCQQALTIGNVDNPFGGGSEVVVK
notes: as for B1
B8: 62E3 (antibody, V domains shown)
VH: B5 VH with T19K, Y31E, G49A, Y55F, S102T, L107F
VL: B5 VL with P8A, A9S, S10P, E12S, V13A, R45K, G65S, D70E, H89Q, G105S
notes: as for B1
B9: 9F7 (antibody, V domains shown)
VH: B5 VH with Y31N, A100T, L107F
VL: B5 VL with R45K, D70E, H89Q, I94V, G105S
notes: as for B1
B10: 5D4-1 (antibody, V domains shown)
VH: QQLEESGGGLVKPEGSLTLTCKGSGFDFSGTYWMWWVRQAPGKGLEWIAPIYVGSGSSTYYASWAKGRFTISSTSSTAVTLQATSLTAADTATYFCARGATNNVFMNYFNLWGPGTLVTVSS
VL: FEMTQTPSSVSEPVGGTVTIKCQASEDISSNLGWYQQKPGQPPKLLIYGASTLASGVPSRFKGSGSGTEFTLTISDLEPADAATYYCQTSYYIDDGVNGFGGGTEVVVK
B11: 5D4-2 (antibody, V domains shown)
VH: B10 VH with P50S
VL: B10 VL with P79A

What follows are binders tested against T1, human Trop-1 (EpCAM) (assay: ELISA, similar to Table 24).
Method: (§1) Purified antibodies were tested by ELISA to confirm their binding and affinity against human and cynomolgus Trop-2-His protein. Briefly, 96-well Maxisorp plates (Nunc) were coated with 100 μl/well of 0.5 μg/ml human (Kactus Cat #TRP-HM121, or Sino Biological, Cat #10428-HO8H) or cynomolgus Trop-2 protein (Kactus Cat #TRP-CM121, or Sino Biological, Cat #90893-CO8H) diluted in 1×PBS (GIBCO) overnight at 4° C. Plates were washed four times with 300 μl/well washing buffer (1×PBST, diluted from 20×PBST (Thermo Scientific) with distilled water)) and then blocked with 300 μl/well of blocking buffer (1×PBST/3% BSA (BSA, Sigma)) for 2 hours at RT on plate shaker at 100 rpm. Plates were washed and added with 100 μl/well of testing antibodies, which were serial diluted with assay buffer (PBST/1% BSA). The antibodies were incubated at room temperature for 2 hours on plate shaker at 100 rpm. Plates were washed. One hundred microliters (100 μl) of 1:10,000 diluted horseradish peroxidase (HRP) conjugated anti-hIgG antibody (Jackson Immuno Research) was added into each well and incubated at room temperature for 1 hour on plate shaker at 100 rpm. Plates were washed and added with 100 μl/well TMB substrate for color development in dark at room temperature for up to 10 minutes. After addition of 50 μl/well of stop solution (1N H₂SO₄), plates were read at 450 nm on a plate reader (SpectraMax M5). EC₅₀ values were calculated using Graphpad Prism. Sacituzumab govitecan, was used as positive control. Anti-HEL.hIgG1 was used as isotype control.
(§2) Similar assays were performed to test whether the exemplary antibodies of the present disclosure bind to human Trop-1 (EpCAM) or mouse Trop-2 (Kactus, Cat #TRP-MM121) or rat Trop-2 (kactus, Cat #TRP_RM121). No binding of the exemplary antibodies of the present disclosure to human Trop-1 (EpCAM) or mouse or rat Trop-2 has been detected.

binding result	Binder
no binding	B1
no binding	B2
no binding	B3
no binding	B4
no binding	B5
no binding	B6
no binding	B7
no binding	B8
no binding	B9
no binding	B10
no binding	B11

Each binder was assayed against T2, mouse Trop-2 (assay: ELISA, similar to Table 24).
Method: as §1, §2

binding result	Binder
no binding	B1
no binding	B2
no binding	B3
no binding	B4
no binding	B5
no binding	B6
no binding	B7
no binding	B8
no binding	B9
no binding	B10
no binding	B11

The binders below were run against T3, rat Trop-2 (assay: ELISA, similar to Table 24).
Method: as §1, §2

binding result	Binder
no binding	B1
no binding	B2
no binding	B3
no binding	B4
no binding	B5
no binding	B6
no binding	B7
no binding	B8
no binding	B9
no binding	B10
no binding	B11

Each binder was assayed against T4, human Trop-2-His protein (assay: BLI (Gator Prime), LEM supernatant Ab on HFC probe).
Method: (§3) After three times of regeneration and neutralization of HFC probe (Gator, Cat #160003), LEM transfection supernatant samples to be tested in K buffer was diluted 1:1 in K buffer and immobilized onto HFC probe. […] The association and dissociation of human or cynomolgus Trop-2-His antigen from antibody was measured on BLI machine Gator Prime. Affinity was calculated using Gator Bio analysis software. Blank control was used for reference subtraction. 1 μg/ml of Sacituzumab govitecan was used as positive control.
(§4) Table 23 below summarizes the binding affinity of exemplary anti-Trop-2 antibodies in LEM transfection supernatant samples to human and cynomolgus Trop-2 using Gator.

Kd [nM]	koff [s⁻¹]	kon [M⁻¹ s⁻¹]	Binder
0.113	3.9e-05	342000	B1
0.142	5.3e-05	372000	B2
0.53	0.00027	518000	B5
0.323	0.00017	526000	B6
0.574	0.00038	666000	B7
0.623	0.00038	607000	B8
0.11	5.8e-05	530000	B9

Biological target: T5, cynomolgus Trop-2-His protein
Experiment: BLI (Gator Prime), LEM supernatant Ab on HFC probe
Method: as §3, §4

Kd [nM]	koff [s⁻¹]	kon [M⁻¹ s⁻¹]	Binder
0.117	3.9e-05	528000	B1
0.108	5.3e-05	569000	B2
0.361	0.00027	688000	B5
0.264	0.00017	758000	B6
0.526	0.00047	898000	B7
0.685	0.00045	651000	B8
0.145	~0.000112	774000	B9
